In this assay the target is N-heptad repeat of HIV-1's gp41 (HIV-1 strain IIIB) (HIV-1 strain IIIB), P04578. Description: cell-based or functional assay.

Drawing on patent US20080039532A1, “Compounds For Specific Viral Target” (priority 2004, published 2008), this text covers RT Results (cpm) (Day 7), HIV-1 IIIB in CBMC, drug for two molecules.

Values joined by “and” are separate entries in the source; they are usually repeats but may differ in a detail not shown here. Identical values can stand only once.

N-heptad repeat of HIV-1's gp41 (HIV-1 strain IIIB) (HIV-1 strain IIIB), P04578, sequence (P04578 540-590 limits assumed): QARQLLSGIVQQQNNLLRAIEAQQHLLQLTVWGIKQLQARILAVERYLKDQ

Take WMEWDREINNYTSLIHSLIEESQNQQERNEQELL (modifications not checked) [CJC-1646 (SEQ ID NO:93), native (unreactive) C34]: the RT Results (cpm) (Day 7), HIV-1 IIIB in CBMC, drug at 0 nM (no-drug baseline) was 49000 cpm and 46300 cpm and 47400 cpm; the RT Results (cpm) (Day 7), HIV-1 IIIB in CBMC, drug at 125 nM was 5850 cpm and 5040 cpm and 5220 cpm; the RT Results (cpm) (Day 7), HIV-1 IIIB in CBMC, drug at 600 nM is 4920 cpm and 5850 cpm and 5090 cpm; the RT Results (cpm) (Day 7), HIV-1 IIIB in CBMC, drug at 3000 nM was 5810 cpm and 6960 cpm and 5970 cpm.
Consider WMEWKREINNYTSLIHSLIEESQNQQERNEQELL (modifications not checked) [CJC-1655 (SEQ ID NO:32), C34 with linker-R1-R2-M inserted at position Asp5], for which the RT Results (cpm) (Day 7), HIV-1 IIIB in CBMC, drug at 0 nM (no-drug baseline) was 71900 cpm and 54100 cpm and 51000 cpm; the RT Results (cpm) (Day 7), HIV-1 IIIB in CBMC, drug at 125 nM is 6320 cpm and 6930 cpm and 5910 cpm; the RT Results (cpm) (Day 7), HIV-1 IIIB in CBMC, drug at 600 nM is 6480 cpm and 11900 cpm and 6030 cpm; the RT Results (cpm) (Day 7), HIV-1 IIIB in CBMC, drug at 3000 nM is 7970 cpm and 5900 cpm and 6210 cpm.
